Data as given in US20260049331A1, “Sense-and-Response of Proteins, Peptides, and Small Molecules Using Ligand-Induced Dimerization Activating RNA Editing (LIDAR)” (The Board of Trustees of the Leland Stanford Junior …, priority 2022, published 2026).

B1: CX3CL1: ligand of CX3CR1-LIDAR (protein)
chain: QHHGVTKCNITCSKMTSKIPVALLIHYQQNQASCGKRAIILETRQHRLFCADPKEQWVKDAMQHLDRQAAALTRNG

Experiments:
[1] = molecular target: GPCR fused to MCP (inverted GPCR LIDAR design; GPCRs not named); test: cell-based or functional assay
[2] = test system: CCR6-based LIDAR outputting iCASP9 (cLSM01-C5 cells); test: LIDAR-induced cell apoptosis with iCASP9 output in stable cell line cLSM01-C5; format: cell-based; details: only when both CCL20 and AP1903 are present; flow cytometry and microscopy; FIG. 9F
Description: In terms of generalizing functional outputs, LIDAR was used to output iCASP9 as a ligand-dependent cell death controller (13) (FIG. 9E), as iCASP9 induces apoptosis in response to the dimerizing molecule AP1903. A monoclonal cell line was generated (cLSM01-C5) expressing all three components of CCR6-based LIDAR by stable PiggyBac integrations. […] Another functional output was then tested, tobacco etch virus (TEV) protease, given our expertise (14) and its broad use (15) in synthetic circuits. A LIDAR-produced TEV protease rescues a fluorescent protein linked via a TEV protease cleavage site to a degron (FIG. 9G). Its dose response curve resembles that of the corresponding LIDAR that directly outputs EGFP (FIG. 9H and FIG. 13F). […] This indicates the potential for LIDAR to be implemented in more complex circuits (16).

CCR6-based LIDAR = molecular target: T1, CCR6-based LIDAR (Homo sapiens, UniProt P51684); test: CCR6-based LIDAR sensing of secreted or membrane-bound CCL20 from sender cells; format: cell-based; details: conditioned media from CCL20-secreting cells or co-culture with cells displaying CCL20; FIG. 10A-D
T1 construct: ADAR2dd (deaminase domain of ADAR2); expressed in transfected cells; host or cells: HEK293 (receiver cells)
T1 sequence (P51684 whole entry, the tested form may be a part): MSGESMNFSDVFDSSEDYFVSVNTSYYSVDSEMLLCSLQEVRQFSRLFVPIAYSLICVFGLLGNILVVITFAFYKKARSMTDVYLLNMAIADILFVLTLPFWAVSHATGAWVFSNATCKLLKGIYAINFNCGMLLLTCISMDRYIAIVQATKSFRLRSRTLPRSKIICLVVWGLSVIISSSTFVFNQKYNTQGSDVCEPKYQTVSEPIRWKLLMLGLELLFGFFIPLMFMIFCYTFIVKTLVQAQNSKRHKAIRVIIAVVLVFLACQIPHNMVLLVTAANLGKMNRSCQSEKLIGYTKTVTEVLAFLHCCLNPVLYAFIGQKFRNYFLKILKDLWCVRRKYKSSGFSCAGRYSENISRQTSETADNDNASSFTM
T1 sequence (P32121 whole entry partner, the tested form may be a part): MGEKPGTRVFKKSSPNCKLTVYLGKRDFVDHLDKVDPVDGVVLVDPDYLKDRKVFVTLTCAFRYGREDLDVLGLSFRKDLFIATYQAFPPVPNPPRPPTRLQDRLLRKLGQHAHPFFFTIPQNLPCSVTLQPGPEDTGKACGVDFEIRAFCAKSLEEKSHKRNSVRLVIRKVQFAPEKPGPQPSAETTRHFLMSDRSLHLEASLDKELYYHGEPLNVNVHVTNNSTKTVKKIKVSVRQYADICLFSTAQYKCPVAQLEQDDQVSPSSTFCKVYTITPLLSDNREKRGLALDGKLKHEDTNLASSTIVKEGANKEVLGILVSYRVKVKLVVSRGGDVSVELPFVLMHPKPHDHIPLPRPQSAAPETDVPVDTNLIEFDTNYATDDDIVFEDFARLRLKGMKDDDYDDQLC
Description: Inspired by examples from synNotch (19, 20) and given the advantage that LIDAR could potentially sense both membrane-bound and soluble ligands. LIDAR was used to drive cell-cell interactions to ultimately program complex multicellular behaviors (21-23). CCR6-based LIDAR senses its ligand, CCL20 (FIG. 10A-D), when the receiver cells are either exposed to conditioned media from CCL20-secreting cells (FIG. 10A, B) or co-cultured with cells displaying CCL20 on their surface (FIG. 10C, D). […] Receiver cells surrounding cells that produce secreted ligands were plated (FIG. 10E), a response gradient was observed going from the sender cells outwards (FIG. 10F). In contrast, when the receiver cells with sender cells producing a membrane-bound ligand were tested, the response pattern is limited to the sender-receiver interface (FIG. 10G, H). The images were quantified to extract the LIDAR output intensity profiles in response to membrane-bound and secreted ligands.

[3] = test system: AVPR-LIDAR and CX3CR1-LIDAR; test: orthogonal ChaCha-like LIDAR receptors (AVPR-LIDAR and CX3CR1-LIDAR) in the same cell; format: cell-based, human; details: MCP/MS2 reporter outputs EGFP, PCP/PP7 reporter outputs mTagBFP; FIG. 10K
Description: To maintain a fast design-build-test cycle, unless specified, all prototyping experiments were performed by transiently co-transfecting receptor-encoding DNA plasmids into human embryonic kidney (HEK) 293 cells.
To program more complex multi-cellular behaviors, as well as to integrate multiple inputs for targeted cell therapies, it is often required to have receptors that process orthogonal signals in the same cell. In our most commonly used configuration (Tango-like LIDAR), the β-arrestin2-RBP fusion protein is recruited to all GPCRs without discrimination. This means that with two different GPCR-LIDAR receptors (e.g., AVPR-based LIDAR and CX3CR1-based LIDAR) the system would only be able to produce one output, triggered by either ligand. In the inverted version, the ADAR2dd and the RBP are interchanged to obtain the GPCR-RBP and β-arrestin2-ADAR2dd fusion proteins, analogous to TANGO vs. ChaCha receptors (25) (FIG. 10J). Because a separate RBP is needed for each receptor. MCP was used for a reporter RNA harboring MS2 loops and outputting EGFP and PP7 bacteriophage coat protein (PCP) for a reporter RNA harboring PP7 loops and outputting mTagBFP.

| Molecule | cell death [2] | output produced by each ligand in the same cell [3] | other results |
| --- | --- | --- | --- |
| β-arrestin2-ADAR2dd (inverted / ChaCha-like LIDAR) (from UniProt P32121 1-409; P78563 299-701) |  |  | fold activation of inverted GPCR LIDAR [1]: < 17 × |
| CC[C@H](C(=O)N1CCCC[C@H]1C(=O)O[C@H](CCc1ccc(OC)c(OC)c1)c1cccc(OCC(=O)NCCNC(=O)COc2cccc([C@@H](CCc3ccc(OC)c(OC)c3)OC(=O)[C@@H]3CCCCN3C(=O)[C@@H](CC)c3cc(OC)c(OC)c(OC)c3)c2)c1)c1cc(OC)c(OC)c(OC)c1 [AP1903, reference compound] | Substantial cell death |  |  |
| CCL20: chemokine, GPCR ligand of CCR6 | Substantial cell death |  | ligand sensing by receiver cells (CCR6-based LIDAR): senses |
| NC(=O)CC[C@@H]1NC(=O)[C@H](Cc2ccccc2)NC(=O)[C@H](Cc2ccc(O)cc2)NC(=O)[C@@H](N)CSSC[C@@H](C(=O)N2CCC[C@H]2C(=O)N[C@@H](CCCN=C(N)N)C(=O)NCC(N)=O)NC(=O)[C@H](CC(N)=O)NC1=O [AVP, Arginine vasopressin, reference compound] |  | EGFP exclusively |  |
| B1 |  | mTagBFP exclusively |  |
